One substance from patent publication US20240000837A1 can be followed below.

The target in the assay is HLA-C1 expressed in the tumor cell membrane (HLA class I on Panc0203 / HPAC tumor cells) (human). Kind of assay: flow cytometry on Panc02.03 cells, PE-conjugated anti-Fc secondary staining.

In the case of “fusion protein encompassing the extracellular domain of KIR2DL2 linked to the Fc portion of an antibody (KIR2DL2-Fc) (from UniProt P43627 22-245) (Fc fusion)”, the percent of cells bound is > 60%.
